Measurements: article PMC2695464, “On the mechanism of autoinhibition of the RhoA-specific nucleotide exchange factor PDZRhoGEF” (BMC Structural Biology, 2009)

Molecular target: human RhoA^F25N (residues 1–181) (human, UniProt P61586 1-181, F25N)
Experiment: cell-based or functional assay

Chain of human RhoA^F25N (residues 1–181) (P61586 1-181 F25N): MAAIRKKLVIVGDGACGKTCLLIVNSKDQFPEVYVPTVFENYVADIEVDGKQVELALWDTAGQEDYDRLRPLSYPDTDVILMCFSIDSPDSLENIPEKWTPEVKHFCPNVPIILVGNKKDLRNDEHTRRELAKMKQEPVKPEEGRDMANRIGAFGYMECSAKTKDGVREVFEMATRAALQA

B1: PRG^4R: PRG^672–1081 with D706R, E708R, E710R, D712R (domain or fragment, human, UniProt O15085 672-1081, looked up)
chain: TPKMGRRSIESPSLGFCTDTLLPHLLEDDLGQLSRLRPRPRAQNWQHTVGKDVVAGLTQREIDRQEVINELFVTEASHLRTLRVLDLIFYQRMKKENLMPREELARLFPNLPELIEIHNSWCEAMKKLREEGPIIKEISDLMLARFDGPAREELQQVAAQFCSYQSIALELIKTKQRKESRFQLFMQEAESHPQCRRLQLRDLIISEMQRLTKYPLLLESIIKHTEGGTSEHEKLCRARDQCREILKYVNEAVKQTENRHRLEGYQKRLDATALERASNPLAAEFKSLDLTTRKMIHEGPLTWRISKDKTLDLHVLLLEDLLVLLQKQDEKLLLKCHSKTAVGSSDSKQTFSPVLKLNAVLIRSVATDKRAFFIICTSKLGPPQIYELVALTSSDKNTWMELLEEAVRNA
**Q.** How did the “catalytic activity in the nucleotide exchange assay on RhoA (mant-GTP fluorescence)” value turn out when B1 was run?
**A.** 3.3 fold over the isolated DH-PH tandem
